# Measured values reported in the nanobody polyreactivity screen of Harvey et al. (2022).
# Assay: yeast display, Sf9 membrane polyspecificity reagent, FACS + sequencing; frameworks hold sequencing errors
# How it was run: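 Nanobodies came from a synthetic yeast display library in Saccharomyces cerevisiae BJ5465, induced with galactose for 36–48 hours and stained for 1 hour at 4 °C with 10% biotinylated, detergent-solubilized Sf9 membrane reagent. Cells were enriched on streptavidin microbeads and then FACS-sorted, with low and high (top ~1%) gates set on anti-HA fluorescence for expression and streptavidin fluorescence for reagent binding. Each polyreactivity label reflects the gate a clone came from. Genes were amplified by colony PCR, sequenced by MiSeq 2 × 250 and filtered by CDR length.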
row,Sequence,polyreactivity (PSR sort gate)
1,QVQLVESGGGLVQAGGSLRLSCAASGFTFYRYAMGWYRPAPGKERELVAAISKSGGTTFYADSVKGRFTISRDNAKNTVYLQMNSLKPEDTEVYYCAVDVPYVQSYIPDPPNVYYWGQGTQVTVSS,high polyreactivity
2,QVQLVESGGGLVQAGGSLRLSCAASGFTFYRYAMGWYRQAPGKERELVAAISTSGGSTYYADSVKGRFTISRDNAKNTVYLQMNSLKPEDTAVYYCAASYYGKRDRAGPYYSFDYWGQGTQVTVSS,high polyreactivity
3,QVQLVESGGGLVQAGGSLRLSCAASGFTFYRYAMGWYRQAPGKERELVAAITWSGGATYYADSVKGRFTISRDNAKNTVYLQMNSLKPEDTAVYYCAADIYDGGFDYWGQGTQVTVSS,low polyreactivity
4,QVQLVESGGGLVQAGGSLRLSCAASGFTFYRYAMGWYRQAPGQEREVVAAIRKSGGSTYYADSVKGRFTISRDNAKTTVYLQMNSLKPEDTAVYYCAKRYATDGFGYWGQGTQVTVSS,high polyreactivity
5,QVQLVESGGGLVQAGGSLRLSCAASGFTFYRYDMGWYRQAPGKERELVAAITNNGGKTYYADSVKGRITISRDNAKYSDYLQMNSLKPVDTAVYYSAAEFYWGDLSYWGQGTQVTVSS,high polyreactivity
6,QVQLVESGGGLVQAGGSLRLSCAASGFTFYRYTMGWYRQAPGKERELVAAISRGGRTYYADSVKGRFTISRDNAKNTVYLQMNSLKPEDTAVYYCNARYPSADDWGQGTQVTVSS,high polyreactivity
7,QVQLVESGGGLVQAGGSLRLSCAASGFTFYRYTMGWYRQAPGKERELVAAISRRGGRTYYADSVKGRFTISRDYAKNSVYLQMNSLKPEDTAVYYCAADSAAYVFGEAYDYWGKGTQVTVSS,high polyreactivity
8,QVQLVESGGGLVQAGGSLRLSCAASGFTFYRYTMGWYRQAPGKERELVASITRRGGSTYYADSVKGRFTISRDNAKNTVYLQMNSLKPEDTAVYYCNAATPVWQSGTYEYWGQGTQVTVSS,high polyreactivity
9,QVQLVESGGGLVQAGGSLRLSCAASGFTFYSNAMGWYRQAPGKERELVAAINWGGGSTYYADSVKGRFTISRDNAKNTVYLQMNSLKPEDTAVYYCAAEPIWEYWNGVSYAYDYWGQGTQVTVSS,low polyreactivity
10,QVQLVESGGGLVQAGGSLRLSCAASGFTFYSNAMGWYRQAPGKERELVAAISYSGGSTYYADSVKGRFTISRDNAKNTVYLQMNSLKPEDTAVYYCAAGGLQQGDYWGQGTQVTVSS,low polyreactivity
11,QVQLVESGGGLVQAGGSLRLSCAASGFTFYSNAMGWYRQAPGKEREMVATITASGGSTYYADSVKGRFTNSRDNAKYTVYVQMYSLKPEDTAVYYCAKDLYWYYRRRGQYVYWGQGTQVTVSS,high polyreactivity
12,QVQLVESGGGLVQAGGSLRLSCAASGFTFYSYAMGWNRQAPGKERELVAAISGGGGSTYYADSVKGRFTISRDNAKNTVYLQMNSLKPEDTAVYYCAKRPAYRGYGLGYYWGQGTQVTVSS,high polyreactivity
13,QVQLVESGGGLVQAGGSLRLSCAASGFTFYSYAMGWYRQAPGKERELVAAISRSGGRTYYADSVKGRFTISRDNAKNTVYLQMNSLKPEDTAVYYCAAEAYGPYSYSYSPYGYYYWGQGTQVTVSS,high polyreactivity
14,QVQLVESGGGLVQAGGSLRLSCAASGFTFYSYAMGWYRQAPGKERELVAAISWSGTRTYYADSVKGRFTISRDNAKNTVYLQMNSLKPVDTAVYDCAADTRRWARGYDYWGQGTQVTVSS,high polyreactivity
15,QVQLVESGGGLVQAGGSLRLSCAASGFTFYSYAMGWYRQEPGKEREFVAAITSRGGSTYYADSVKGRFTISRDNAKNTVYLQMNSLKPEDNAVYYCAAYAGYSDQARYYYWGQGTQVTVSS,high polyreactivity
16,QVQLVESGGGLVQAGGSLRLSCAASGFTFYSYTMGWYRQAPGKERELVAAISGRSVRTYYADSVKGRFTISRDNAKNTVYLQMNSLKPEDTAVYYCARAYYWRTSWYNYWGQGTQVTVSS,high polyreactivity
17,QVQLVESGGGLVQAGGSLRLSCAASGFTFYTNAMGWYRQAPGKEREFVAAISFSGGTYYADSVKGRFTISRDNAKNTVYLQMNSLKPEDTAVYYCNARYPRYYRGVIQYDYWGQGTQVTVSS,low polyreactivity
18,QVQLVESGGGLVQAGGSLRLSCAASGFTFYTNTMGWYRQAPGKERELVAAISSGGSTYYADSVKGRFTISLDNAKNTVYLKMNSLKPEVTAVYYCAVYGPWAYYPMGYWGQGTQVTVSS,low polyreactivity
19,QVQLVESGGGLVQAGGSLRLSCAASGFTFYTYAMGWYRHAPGKERELVAAITSSGGSTYYADSVKGRFTISRDNAKNSVYLQMNSLKPEDTAVYYCKAVSYYLGDDYWGQGTQVNVSS,high polyreactivity
20,QVQLVESGGGLVQAGGSLRLSCAASGFTFYTYAMGWYRPAPGKERELVATITIGDGSTYYADSVKGRFTISRDNAKNTVYLQMNSLKPEDTAVYYCNRDSVGYDYWGQGSQVTVSS,low polyreactivity
21,QVQLVESGGGLVQAGGSLRLSCAASGFTFYTYVMGWYRQAPGKERELVAAISGRGGSTYYADSVKGRFTISRDNAKNTVYLQMNSLKPEDTAVYYCATVRSYSRVVGYDYWGQGTQVTVSS,high polyreactivity
22,QVQLVESGGGLVQAGGSLRLSCAASGFTFYVNVMGWYRQPPGKEREFVAAIRTRGASTYYADSVKGRFTISRDNAKNTVYLQMNSLKPEDTADYYCAAGWFWNYWYGVSMDYWGQGTQVTVSS,high polyreactivity
23,QVQLVESGGGLVQAGGSLRLSCAASGFTFYVYAMGWYRQAPGKERELVAAISKSGGSTYYADSVKGRFTISRDNAKNTVYLQMNSLKPEDTAVYYCAVYDKRSGYRGGHRYNSWGQGTQVTVSS,high polyreactivity
24,QVQLVESGGGLVQAGGSLRLSCAASGFTFYWYAMGWYRQAPGKERELVAAITRSGSSTYYADSVKGRFTISRDNAKNTVYLQMNSLKPEDTAVYYCAKAYRPPGYDSWGQGTQVTVSS,high polyreactivity
25,QVQLVESGGGLVQAGGSLRLSCAASGFTFYYNAMGWYRQAPGKERELGASITRSGGRTYYADSVKGRFTISRDYAKNTVYLQMNSLKPEDTAVYYCARRYPGGYYWGQGTHVTVSS,high polyreactivity
26,QVQLVESGGGLVQAGGSLRLSCAASGFTFYYYALGWYRQAPGKERELVAAISTRDGNTYYADSVKGRFTISRDNAKNTVYLQMNSLKPEDTAVYYCAADSYSGYNYWGQGTQVTVSS,low polyreactivity
27,QVQLVESGGGLVQAGGSLRLSCAASGFTFYYYAMGWYRQAPGKERELVAAITSSGGRTYYADSVKGRFTISRDNAKNTVYLQMNSLKPEDTAVYYCAATGFYHRGEYYYWGQGTQVTVSS,low polyreactivity
28,QVQLVESGGGLVQAGGSLRLSCAASGFTFYYYAMGWYRQAPGKERELVAAITWSGDSTNYADSVKGRFTISRDNAKNSVYLQMNSLKPEDTAVYYCATESYDSYGLYDYWGQGTQVTVSS,low polyreactivity
29,QVQLVESGGGLVQAGGSLRLSCAASGFTFYYYAMGWYRQAPGKERELVAGINSDGNTYYADSVKGRFTISRDNAKNTVYLQMNSLKPEDTAVYYCAARKLWPKNFVRHDYWGQGTQVTVSS,low polyreactivity
30,QVQLVESGGGLVQAGGSLRLSCAASGFTFYYYAMGWYRQAPGKERELVARITSGGSTYYADSVKGRFTISRDNAMYTVYLQMNCLKPEDTAVYYCNVDVSVEVAYWGQGTQVTVSS,low polyreactivity
